Laboratory results from patent US20240270821A1, “GIP/GLP1/GCG TRI-RECEPTOR AGONISTS AND USES THEREOF” (priority 2023, published 2024).

How the values were obtained:
Assay in all cases: cell-based or functional assay
hGLP-1R = hGLP-1R (Homo sapiens, UniProt P43220)
[1] = target: T1, human GIP receptor (hGIPR) (human) (UniProt P48546)
T1 sequence (looked up): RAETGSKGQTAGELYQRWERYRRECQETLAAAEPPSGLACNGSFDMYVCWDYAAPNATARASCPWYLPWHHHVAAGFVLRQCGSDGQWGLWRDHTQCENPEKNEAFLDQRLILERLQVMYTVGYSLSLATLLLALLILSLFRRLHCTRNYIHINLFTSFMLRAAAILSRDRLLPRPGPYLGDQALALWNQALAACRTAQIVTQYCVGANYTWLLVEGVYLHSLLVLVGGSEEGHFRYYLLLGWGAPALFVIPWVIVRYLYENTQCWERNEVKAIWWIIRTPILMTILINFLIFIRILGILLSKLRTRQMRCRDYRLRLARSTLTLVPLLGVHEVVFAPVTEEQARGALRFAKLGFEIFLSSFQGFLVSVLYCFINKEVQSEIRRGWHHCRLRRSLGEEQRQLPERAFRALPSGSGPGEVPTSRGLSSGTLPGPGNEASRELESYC

[2] = target: T2, human GIP receptor (human) (UniProt P48546)
T2 sequence (looked up): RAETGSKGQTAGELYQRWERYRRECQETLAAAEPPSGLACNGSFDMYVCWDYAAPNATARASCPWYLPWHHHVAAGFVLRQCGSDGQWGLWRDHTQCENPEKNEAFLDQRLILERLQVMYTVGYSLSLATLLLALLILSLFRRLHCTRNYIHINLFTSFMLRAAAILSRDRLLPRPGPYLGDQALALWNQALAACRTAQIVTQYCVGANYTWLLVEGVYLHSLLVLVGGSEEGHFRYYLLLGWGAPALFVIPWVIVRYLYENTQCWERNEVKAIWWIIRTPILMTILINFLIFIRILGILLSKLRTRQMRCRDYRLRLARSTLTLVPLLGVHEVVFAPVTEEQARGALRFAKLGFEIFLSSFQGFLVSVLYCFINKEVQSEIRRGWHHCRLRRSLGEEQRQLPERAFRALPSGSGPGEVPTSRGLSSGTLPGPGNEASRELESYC

[3] = target: human GLP-1 receptor (hGLP-1R) (human) (UniProt P43220)
Sequence of human GLP-1 receptor (hGLP-1R) (human) (P43220 24-463): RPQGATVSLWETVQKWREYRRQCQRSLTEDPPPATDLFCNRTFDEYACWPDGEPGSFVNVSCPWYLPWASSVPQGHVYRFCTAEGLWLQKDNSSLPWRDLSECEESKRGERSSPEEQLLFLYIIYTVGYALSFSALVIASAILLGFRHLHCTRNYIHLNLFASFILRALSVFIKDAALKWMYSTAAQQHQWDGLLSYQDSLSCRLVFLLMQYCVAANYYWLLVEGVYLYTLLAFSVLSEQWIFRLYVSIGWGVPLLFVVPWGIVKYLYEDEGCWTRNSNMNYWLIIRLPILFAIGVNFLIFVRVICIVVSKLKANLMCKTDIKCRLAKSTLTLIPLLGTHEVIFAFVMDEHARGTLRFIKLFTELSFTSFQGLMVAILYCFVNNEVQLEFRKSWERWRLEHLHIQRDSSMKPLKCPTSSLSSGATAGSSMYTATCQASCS

[4] = target: human GLP-1R (SNAP-GLP-1R expressed in HEK293 cells) (human) (UniProt P43220)
Sequence of human GLP-1R (SNAP-GLP-1R expressed in HEK293 cells) (human) (P43220 24-463): as above

[5] = target: human glucagon receptor (hGcgR) (human) (UniProt P47871)
Sequence of human glucagon receptor (hGcgR) (human) (P47871 26-477): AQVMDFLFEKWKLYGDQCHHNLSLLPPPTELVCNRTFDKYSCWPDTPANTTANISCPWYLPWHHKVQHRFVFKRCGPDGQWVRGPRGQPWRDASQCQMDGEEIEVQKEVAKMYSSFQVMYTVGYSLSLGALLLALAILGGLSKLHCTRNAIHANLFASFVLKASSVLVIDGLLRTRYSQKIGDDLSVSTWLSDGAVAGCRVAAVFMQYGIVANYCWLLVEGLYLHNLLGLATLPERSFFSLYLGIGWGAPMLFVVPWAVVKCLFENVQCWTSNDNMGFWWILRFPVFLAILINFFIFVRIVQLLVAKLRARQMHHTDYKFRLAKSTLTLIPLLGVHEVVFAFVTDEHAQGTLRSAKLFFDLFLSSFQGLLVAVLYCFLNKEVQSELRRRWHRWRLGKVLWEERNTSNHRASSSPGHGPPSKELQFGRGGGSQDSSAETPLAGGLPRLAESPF

[6] = target: human glucagon receptor (human) (UniProt P47871)
Sequence of human glucagon receptor (human) (P47871 26-477): as above

Sequence of hGLP-1R (P43220 24-463): as the sequence (P43220 24-463) above

cAMP Rel EC50, nM (presence of 1% HSA) (hGLP-1R): 38 nM | Relative cAMP EC50 [1]: 0.0547 nM | cAMP Rel EC50, nM (presence of 1% HSA) [2]: 3.48 nM | Relative cAMP EC50 [3]: 0.478 nM | GLP1R Internalization EC50 [4]: 17.8 nM | Internalization % TOP [4]: 109% | Relative cAMP EC50 [5]: 3.94 nM | cAMP Rel EC50, nM (presence of 1% HSA) [6]: 295 nM
B1: Example 548 (peptide)
chain: YXQGTXTSDXXILLDXKAQXXFIEYLIEGGPSSGEPPPSGTGE
modifications: synthetic construct; SITE 2: note = 2-Aminoisobutyric Acid; SITE 6: note = alpha-methyl-2-fluoro-L-phenylalanine; SITE 10: note = 3-(4-Pyridyl)-L-alanine; SITE 11: note = alpha-methyl-L-serine; SITE 16: note = L-ornithine; SITE 17: note = Lysine is chemically modified through conjugation of the epsi
